In patent publication US20250099540A1 (INSERM INSTITUT NATIONAL DE LA SANT ET DE LA RECHERCHE M …, published 2025):

Target: T1, purified integrin αIIbβ3 (R&D Systems #7148-A2-025) (UniProt P08514 32-993; P05106 27-718)
T1 construct: One protein preparation was tested in two states; also called GPIIb-IIIa; CD41/CD61
Experiment: SPR single-cycle kinetics, sEng-Strep on SA chip, activated Ca2+/Mn2+-loaded integrin as analyte, 25° C.; apparent value; activated Ca2+/Mn2+-loaded integrin αIIbβ3 as analyte
Procedure: The association between sEng-Strep-tag® II and integrin αIIbβ3 was analyzed by surface plasmon resonance (SPR) on a streptavidin (SA) biosensor (Cytiva) at 25° C. First, we immobilized resonance units (RU) of sEng-Strep-tag® II onto the test flow cell of a SA chip through the C-terminal StrepII-tag to provide a sEng concentration on the surface of ˜10 μM. The reference flow cell was not modified. […] Polysorbate 20 (PS20), either supplemented with 1 mM MnCl2 and 1 mM CaCl2 or after extensive dialysis against EDTA to remove residual divalent cations in the protein preparation. Integrin αIIbβ3 (25 μg per experiment) was resuspended to 0.2 mg/ml (˜1 μM) in the appropriate running buffer before use. Analysis was performed with the BiaEvaluation version 3.0.2 software (Cytiva) and the Anabel webserver.
To investigate this interaction, we analyzed the association between sEng-Strep-tag® II (sEng-Strep) and integrin αIIbβ3 by surface plasmon resonance (SPR) on a streptavidin (SA) biosensor (Cytiva) at 25° C. using single-cycle kinetics. When non-activated integrin αIIbβ3 was flowed over surface-immobilized sEng-Strep, no binding was detected (FIG. 5).

B1: sEng-Strep-tag II (streptavidin-tagged construct of soluble endoglin) (receptor, human, UniProt P17813 26-586, looked up)
chain: ETVHCDLQPVGPERGEVTYTTSQVSKGCVAQAPNAILEVHVLFLEFPTGPSQLELTLQASKQNGTWPREVLLVLSVNSSVFLHLQALGIPLHLAYNSSLVTFQEPPGVNTTELPSFPKTQILEWAAERGPITSAAELNDPQSILLRLGQAQGSLSFCMLEASQDMGRTLEWRPRTPALVRGCHLEGVAGHKEAHILRVLPGHSAGPRTVTVKVELSCAPGDLDAVLILQGPPYVSWLIDANHNMQIWTTGEYSFKIFPEKNIRGFKLPDTPQGLLGEARMLNASIVASFVELPLASIVSLHASSCGGRLQTSPAPIQTTPPKDTCSPELLMSLIQTKCADDAMTLVLKKELVAHLKCTITGLTFWDPSCEAEDRGDKFVLRSAYSSCGMQVSASMISNEAVVNILSSSSPQRKKVHCLNMDSLSFQLGLYLSPHFLQASNTIEPGQQSFVQVRVSPSVSEFLLQLDSCHLDLGPEGGTVELIQGRAAKGNCVSLLSPSPEGDPRFSFLLHFYTVPIPKTGTLSCTVALRPKTGSQDQEVHRTVFMRLNIISPDLSGCTSKG
notes: extracellular domain; Immobilised on a streptavidin (SA) chip through the C-terminal StrepII-tag; not shown: C-terminal Strep-tag II
  Kd: < 9 nM
  koff: < 0.008 s⁻¹
